The values below come from patent US20190233517A1 (published 2019).

Assay [1] concerns the target T1, CD20 on the cell surface of Raji cells (human, UniProt P11836 1-297).
T1 construct: whole, on cells; also called CD20 (Raji)
T1 sequence (looked up): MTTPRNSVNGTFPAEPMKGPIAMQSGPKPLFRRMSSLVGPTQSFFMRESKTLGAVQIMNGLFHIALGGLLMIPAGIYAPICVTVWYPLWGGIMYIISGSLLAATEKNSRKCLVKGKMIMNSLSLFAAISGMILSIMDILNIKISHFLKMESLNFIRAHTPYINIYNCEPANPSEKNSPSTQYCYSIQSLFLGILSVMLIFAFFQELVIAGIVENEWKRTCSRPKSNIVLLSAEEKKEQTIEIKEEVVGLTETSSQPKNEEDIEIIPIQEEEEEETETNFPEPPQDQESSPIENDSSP
Kind of assay: flow cytometry on Raji cells, 100 nM.

Assay [2] addresses T1, CD20 on the cell surface of Raji cells. The experiment in a line: flow cytometry on Raji cells.
Text: (§1) Raji cell was used for detecting human B cell binding. […] Cells were washed in PBS buffer containing 2% FBS. […] Cells were washed and signal was detected with a BD FACSVerse flow cytometer according to manufacture's protocols.
The target of assay [3] is T2, cynomolgus CD20 on transiently transfected HEK 293 cells (cynomolgus, UniProt M4ZHZ6 1-297).
T2 construct: whole, on cells; also called cynoCD20
T2 sequence: T1 sequence (looked up) with S25P, F31L, T51A, A157V, K217R, N226S, I227V, T239V
The experiment in a line: flow cytometry on HEK 293 cells transfected with cynoCD20. In general terms: A flow cytometer gives signals particle by particle.
Text: as §1

For another assay, the target named is membrane EGFR (human, UniProt P00533 25-1210). Kind of assay: cell-based or functional assay.

Changes are numbered by the printed parent chain. Names may count otherwise.

B1: OKT3/Ofatumumab FIT7-Ig (bispecific antibody, human IgG1, kappa)
chain 1: not shown
chain 2: not shown
chain 3: not shown
notes: FIT-Ig of 3 polypeptides, two copies of each chain, human IgG1 Fc
In the case of B1, the “Binding Intensity by FACS (MFI)” value in assay [1] came to 291 MFI.

B2: FIT018a CD20 (Ofatumumab)/CD3 mAb (bispecific antibody, human IgG1, kappa, lambda, L234A L235A)
chain 1: not shown
chain 2: EVQLVESGGGLVQPGRSLRLSCAASGFTFNDYAMHWVRQAPGKGLEWVSTISWNSGSIGYADSVKGRFTISRDNAKKSLYLQMNSLRAEDTALYYCAKDIQYGNYYYGMDVWGQGTTVTVSSASTKGPSVFPLAPSSKSTSGGTAALGCLVKDYFPEPVTVSWNSGALTSGVHTFPAVLQSSGLYSLSSVVTVPSSSLGTQTYICNVNHKPSNTKVDKKVEPKSC
chain 3: ELVVTQEPSLTVSPGGTVTLTCRSSTGAVTTSNYANWVQQKPGQAPRGLIGGTNKRAPGTPARFSGSLLGGKAALTLSGVQPEDEAEYYCALWYSNLWVFGGGTKLTVLGQPKAAPSVTLFPPSSEELQANKATLVCLISDFYPGAVTVAWKADSSPVKAGVETTTPSKQSNNKYAASSYLSLTPEQWKSHRSYSCQVTHEGSTVEKTVAPTECS
On to B2, for which the binding result in assay [2] and in assay [3] was “binds” in each case.

B3: FIT013a cMet (h1332 (13.3.2L-A91T,H-42K,S97T))/EGFR (panitumumab) (bispecific antibody, human IgG1, kappa)
chain 1: not shown
chain 2: QVQLVQSGAEVKKPGASVKVSCKASGYTFTSYGFSWVRQAPGQGLEWMGWISASNGNTYYAQKLQGRVTMTTDTSTSTAYMELRSLRSDDTAVYYCARVYADYADYWGQGTLVTVSSASTKGPSVFPLAPSSKSTSGGTAALGCLVKDYFPEPVTVSWNSGALTSGVHTFPAVLQSSGLYSLSSVVTVPSSSLGTQTYICNVNHKPSNTKVDKKVEPKSC
chain 3: not shown
Consider B3, for which, in the assay with membrane EGFR, the “EGFR Depletion (%), H441 cell, FACS after >16 hrs at 37 C” value stood at 65.9%.

B4: OKT3/Ofatumumab FIT8-Ig (bispecific antibody, human IgG1, kappa)
chain 1: not shown
chain 2: not shown
chain 3: not shown
notes: as for B1
Turning to B4, the “Binding Intensity by FACS (MFI)” value in assay [1] was 274 MFI.

B5: cMet antibody h1332 (13.3.2L-A91T,H-42K,S97T) (antibody, V domains shown)
VH: QVQLVQSGAEVKKPGASVKVSCKASGYTFTSYGFSWVRQAPGQGLEWMGWISASNGNTYYAQKLQGRVTMTTDTSTSTAYMELRSLRSDDTAVYYCARVYADYADYWGQGTLVTVSS
VL: DIQMTQSPSSVSASVGDRVTITCRASQGINTWLAWYQQKPGKAPKLLIYAASSLKSGVPSRFSGSGSGTDFTLTISSLQPEDFATYYCQQANSFPLTFGGGTKVEIK
With B5, in the assay with membrane EGFR, the “EGFR Depletion (%), H441 cell, FACS after >16 hrs at 37 C” value is 0%.
